Reference: patent publication US9156883B2, “Binding molecules for human factor VIII and factor VIII-like proteins” (DYAX CORP., priority 1999, dated 2015)
Positions of bridges follow the written chain, without caps; N, C: chain ends. No end group written: not given here. *: point of attachment. NHNH2 = NN*

biological target: T1, native human factor VIII (nhfVIII) (Homo sapiens, UniProt P00451); test: Comparative batch binding and elution of nhfVIII with immobilized polypeptide ligands; details: batch procedure
T1 construct: native human factor VIII (nhfVIII); purchased American Diagnostica, Inc. (Greenwich, Conn.) #408 nat
T1 sequence (P00451 20-1332 limits assumed): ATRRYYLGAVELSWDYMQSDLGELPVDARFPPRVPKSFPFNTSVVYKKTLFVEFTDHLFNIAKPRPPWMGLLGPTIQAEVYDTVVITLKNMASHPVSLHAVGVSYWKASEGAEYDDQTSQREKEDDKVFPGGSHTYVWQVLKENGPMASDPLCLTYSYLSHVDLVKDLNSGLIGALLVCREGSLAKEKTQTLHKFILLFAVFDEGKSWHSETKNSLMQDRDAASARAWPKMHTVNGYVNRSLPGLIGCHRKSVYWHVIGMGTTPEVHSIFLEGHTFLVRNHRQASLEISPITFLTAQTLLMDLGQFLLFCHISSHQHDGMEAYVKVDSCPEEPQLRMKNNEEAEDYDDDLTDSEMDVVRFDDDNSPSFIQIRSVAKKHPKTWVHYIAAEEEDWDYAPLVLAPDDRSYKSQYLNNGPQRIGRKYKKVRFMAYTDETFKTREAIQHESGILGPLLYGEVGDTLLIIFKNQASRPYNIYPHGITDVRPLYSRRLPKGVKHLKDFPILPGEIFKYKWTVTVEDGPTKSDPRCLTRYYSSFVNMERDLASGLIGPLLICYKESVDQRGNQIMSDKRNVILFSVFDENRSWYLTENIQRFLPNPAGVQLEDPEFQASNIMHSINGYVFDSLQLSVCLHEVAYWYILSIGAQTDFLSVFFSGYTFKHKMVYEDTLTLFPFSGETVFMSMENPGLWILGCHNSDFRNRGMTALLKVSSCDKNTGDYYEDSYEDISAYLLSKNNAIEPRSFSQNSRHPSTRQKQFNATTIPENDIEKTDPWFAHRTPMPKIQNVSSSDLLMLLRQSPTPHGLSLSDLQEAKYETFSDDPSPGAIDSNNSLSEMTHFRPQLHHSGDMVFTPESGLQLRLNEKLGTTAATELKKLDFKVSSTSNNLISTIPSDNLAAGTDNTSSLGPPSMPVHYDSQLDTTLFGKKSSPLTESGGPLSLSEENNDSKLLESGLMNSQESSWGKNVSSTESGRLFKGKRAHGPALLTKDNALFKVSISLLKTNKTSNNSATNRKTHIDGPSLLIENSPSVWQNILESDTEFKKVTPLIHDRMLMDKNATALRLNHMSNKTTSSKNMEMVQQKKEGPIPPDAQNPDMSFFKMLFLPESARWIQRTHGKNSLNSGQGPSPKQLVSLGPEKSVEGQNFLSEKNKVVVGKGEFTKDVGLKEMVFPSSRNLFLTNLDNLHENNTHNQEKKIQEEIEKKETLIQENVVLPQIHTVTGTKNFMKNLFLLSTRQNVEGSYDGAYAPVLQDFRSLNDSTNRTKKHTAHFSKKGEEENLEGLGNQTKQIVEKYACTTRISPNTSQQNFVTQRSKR
T1 sequence (P00451 1668-2351 limits assumed): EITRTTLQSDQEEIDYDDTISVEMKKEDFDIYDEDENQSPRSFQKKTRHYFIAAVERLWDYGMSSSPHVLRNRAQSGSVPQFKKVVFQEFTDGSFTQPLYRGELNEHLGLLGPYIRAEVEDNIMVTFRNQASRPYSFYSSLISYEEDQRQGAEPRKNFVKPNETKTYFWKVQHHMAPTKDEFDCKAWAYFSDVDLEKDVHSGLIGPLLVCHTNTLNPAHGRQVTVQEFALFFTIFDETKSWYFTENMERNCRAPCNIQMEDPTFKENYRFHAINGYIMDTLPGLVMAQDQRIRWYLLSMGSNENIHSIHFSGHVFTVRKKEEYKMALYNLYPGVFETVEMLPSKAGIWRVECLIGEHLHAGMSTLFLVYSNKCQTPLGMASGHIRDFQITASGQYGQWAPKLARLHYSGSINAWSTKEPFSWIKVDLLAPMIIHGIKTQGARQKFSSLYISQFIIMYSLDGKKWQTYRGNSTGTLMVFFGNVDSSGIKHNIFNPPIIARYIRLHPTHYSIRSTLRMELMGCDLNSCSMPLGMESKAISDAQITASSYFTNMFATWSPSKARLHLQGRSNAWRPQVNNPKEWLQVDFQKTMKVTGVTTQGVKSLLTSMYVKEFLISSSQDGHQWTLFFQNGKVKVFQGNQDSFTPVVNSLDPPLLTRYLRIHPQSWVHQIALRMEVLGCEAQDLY
Protocol: For these experiments, nhfVIII was obtained from American Diagnostica, Inc. (Greenwich, Conn.; product #408 nat) in the form of a lyophilized powder containing stabilizing agents. The nhfVIII was reconstituted according to the manufacturer's instructions in a reconstituting buffer (72 mM NH4OAc, pH 6.3, 360 mM NaCl, 0.04% Tween 80 (Buffer 1).
A commercial ELISA kit (IMUBIND fVIII ELISA kit, Product #884, American, Inc., Greenwich, Conn.) developed to detect factor VIII was used according to the manufacturer's specifications in order to detect both the REFACTO® and the nhfVIII targets. The kit employs a sandwich ELISA assay in which the target is captured by an immobilized monoclonal antibody and the captured target is detected with a second monoclonal antibody-horseradish peroxidase (HRP) conjugate. Addition of the peroxidase substrate and its subsequent reaction with the HRP produces a blue color (detected at 630 nm) which changes to yellow (detected at 450 nm) on addition of the 0.5N sulfuric acid stop solution. Color response is calibrated with factor VIII standards provided by the manufacturer.
Following the pH 2 washes, the beads were washed once in PBS containing 0.05% azide and stored at 4° C.
A sample of nhfVIII was diluted to a final concentration of 100 U/ml by addition of 2.32 ml H2O, 180 μl 1M NH4OAc, pH 6.3 (to 72 mM), and 1 μl Tween 80 (to 0.04%). REFACTO® stock solution was diluted to 100 U/ml in a modified Buffer 1, in which the NaCl concentration was reduced from […] to 330 mM.
Immobilized peptides were tested for binding to nhFVIII in comparison with REFACTO®. […] Next, nhfVIII and REFACTO® solutions were mixed with regenerated affinity beads bearing the CS-454, CS-456, and CS-458 ligands in a comparative batch purification procedure.

Row | Substance | binding and release of nhfVIII compared with a factor VIII-like polypeptide (in words)
1 | AEGTGDFGCSWLFPCPFDPGPEGGGS-NHNH2 (disulfide 9-15 (inferred)) [CS-456] | bind and release nhfVIII under similar conditions and with similar yields
2 | AEGTGDHLCGAWFRPCDADPGPEGGGS-NHNH2 (disulfide 9-16 (inferred)) [CS-454] | bind and release nhfVIII under similar conditions and with similar yields
3 | AEGTGDFCWVFAFDHCHDPGPEGGGS-NHNH2 (disulfide 8-16 (inferred)) [CS-458] | bind and release nhfVIII under similar conditions and with similar yields
